# B1: RAS10-G12S peptide (peptide)
# peptide: KLVVVGASGV
# notes: peptide of the complex m14; also called R10-G12S
# B2: scFv phage clone #2 (scFv)
# scFv: QSVLTQPPSVSGAPGQRVTISCTGSSSNIGAGYDVHWYQQLPGTAPKLLIYGNSNRPSGVPDRFSGSKSGTSASLAITGLQAEDEADYYCQSYDSSLSGSVFGTGTKVTVLGSRGGGGSGGGGSGGGGSLEMAVQLVQSGAEVKKPGSSVKVSCKASGGTFSSYTINWVRQAPGQGLEWMGGFIPISGTVNYAQKFQGRVTITADESTSTAYMELSSLRSEDTAVYYCARPLDWTEDIWGQGTLVTVSS
# notes: also called K-Ras G12V/HLA A0201 specific phage clone
# B3: Ras mAb #2, full-length human IgG1 (antibody, V domains shown)
# VH: QVQLVQSGAEVKKPGSSVKVSCKASGGTFSSYTINWVRQAPGQGLEWMGGFIPISGTVNYAQKFQGRVTITADESTSTAYMELSSLRSEDTAVYYCARPLDWTEDIWGQGTLVTVSS
# VL: QSVLTQPPSVSGAPGQRVTISCTGSSSNIGAGYDVHWYQQLPGTAPKLLIYGNSNRPSGVPDRFSGSKSGTSASLAITGLQAEDEADYYCQSYDSSLSGSVFGTGTKVTVLG
# notes: also called clone #2; Ras antibody #2
# B4: Ras mAb #4, full-length human IgG1 (antibody, V domains shown)
# VH: EVQLVQSGAEVKKPGASVKVSCKASGYTFTAYYLHWLRQAPGQGLEWMGWMNTNNGATRYAQKFQDRVTMTRDTSINTAYMEMSGLSSDDTAMYYCARGDISQDFADVWGQGTLVTVSS
# VL: NFMLTQPHSVSESPGKTVTISCTGSSGSIASNYVQWYQQRPGSAPTILIYEDNKRPSGVPDRFSGSIDSSSNSASLTISGLKTGDEADYYCQSYDDINHWVFGGGTKLTVLG
# notes: also called clone #4; Ras antibody #4
# B5: Ras mAb #7, full-length human IgG1 (antibody, V domains shown)
# VH: EVQLVESGAEVKEPGSSVKVSCKASGGTFSSYGISWIRQAPGQGLEWMGEIIPIFGTPNYAQKFQGRVTITADESTSTAYVELSSLRSDDTAVYYCARSYYGYFDGWGQGTLVTVSS
# VL: DIQMTQSPSSLSASVGDRVTITCQASQDISNYLNWYQQKPGKAPKLLIYDASNLETGVPSRFSGSGSGTDFTFTISSLQPDDFATYYCQQYKSYPLTFGGGTKVEIKR
# notes: also called clone #7; Ras antibody #7
# Columns and labels:
# [1] = biological target: T1, HLA-A0201 on T2 cells without added peptide (human); test: T2 stabilization control, flow cytometry: BB7 staining of T2 cells pulsed with the peptide
# T1 construct: Used as the negative target (T2 cells alone) and as the HLA-A0201 partner of the free peptides in the T2 stabilization assay; also called T2 alone; empty T2 cells
# Description: The binding of the mAb to the peptide/HLA-A2 complex was measured by direct staining with mAbs conjugated to APC or by indirect staining with mAbs, followed by secondary goat anti-human IgG1/FITC mAb. The binding of the mAbs was measured by flow cytometry on a FACScalibur (Becton Dickenson) and analyzed with FlowJo 9.6.3 software. […] (F) Antibody by the above peptides to T2 cells was measured.
# [2] = biological target: T1, HLA-A0201 on T2 cells without added …; test: flow cytometry, scFv phage on T2 cells, anti-M13 detection
# [3] = biological target: T2, Ras9-WT peptide/HLA-A0201 complex on peptide-pulsed T2 cells (human); test: flow cytometry, scFv phage on peptide-loaded T2 cells, anti-M13 detection
# T2 construct: also called T2-0141WT
# [4] = biological target: T3, Ras10-WT peptide/HLA-A0201 complex on peptide-pulsed T2 cells (human); test: as above
# T3 construct: also called Ras WT; T2-0142WT
# [5] = biological target: T2, Ras9-WT peptide/HLA-A0201 complex on …; test: flow cytometry, indirect staining of T2 cells pulsed with 50 ug/ml peptide
# [6] = biological target: Ras10-G12D peptide/HLA-A0201 complex on peptide-pulsed T2 cells (human); test: flow cytometry, indirect staining of peptide-pulsed T2 cells (peptide 50 µg/ml)
# [7] = biological target: T1, HLA-A0201 on T2 cells without added …; test: flow cytometry of T2 cells without peptide
# [8] = biological target: T4, biotinylated Ras10-G12V/HLA-A0201 complex monomer (human, chain 1: C-terminal BirA substrate peptide (letters not given), enzymatically biotinylated by BirA); test: BLI (ForteBio Octet QK), biotinylated pMHC on streptavidin sensor, mAb at 10 µg/mL, 1:1 model partial fit
# T4 construct: also called Ras G12V/HLA-A0201; Ras-G12V/HLA A0201 complex monomer; not shown: the BirA substrate peptide (BSP) at the C-terminus of the heavy chain
# [9] = biological target: T3, Ras10-WT peptide/HLA-A0201 complex on …; test: flow cytometry of T2 cells pulsed with peptide
# [10] = biological target: T5, biotinylated Ras10-WT/HLA-A0201 complex monomer (human, chain 1: C-terminal BirA substrate peptide (letters not given), enzymatically biotinylated by BirA); test: BLI (ForteBio Octet QK), biotinylated pMHC on streptavidin sensor
# T5 construct: also called Ras wt/HLA-A0201; not shown: the BirA substrate peptide (BSP) at the C-terminus of the heavy chain
# [11] = biological target: T6, Ras9-G12V peptide/HLA-A0201 complex on peptide-pulsed T2 cells (human); test: flow cytometry, indirect staining of T2 cells pulsed with 50 ug/ml peptide
# T6 construct: also called K-Ras9 G12V/HLA A0201; T2-014A1mut
# [12] = biological target: T7, Ras10-G12C peptide/HLA-A0201 complex on peptide-pulsed T2 cells (human); test: flow cytometry, indirect staining of peptide-pulsed T2 cells (peptide 50 µg/ml)
# T7 construct: also called Ras-G12C
# [13] = biological target: T8, Ras10-G12V peptide with alanine substitution at position 12/HLA-A0201 complex on peptide-pulsed T2 cells (human); test: flow cytometry of T2 cells pulsed with peptide
# T8 construct: Position 12 counts on the Ras protein; also called peptide containing an alanine substitution at position 12
# [14] = biological target: RAS10-G10A peptide/HLA-A0201 complex on peptide-pulsed T2 cells; test: flow cytometry of T2 cells pulsed with peptide
# [15] = biological target: T1, HLA-A0201 on T2 cells without added …; test: T2 stabilization control, flow cytometry: BB7 staining of T2 cells pulsed with the peptide; remark: listed apart in the source
# Description: The binding of the mAb to the peptide/HLA-A2 complex was measured by indirect (A) or indirect staining with mAbs conjugated to APC (B).
# [16] = biological target: T5, biotinylated Ras10-WT/HLA-A0201 complex …; test: BLI (ForteBio Octet QK), biotinylated pMHC on streptavidin sensor, mAb at 10 µg/mL, 1:1 model partial fit
# [17] = biological target: RAS10-G13A peptide/HLA-A0201 complex on peptide-pulsed T2 cells; test: flow cytometry of T2 cells pulsed with peptide
# [18] = biological target: RAS10-V9A peptide/HLA-A0201 complex on peptide-pulsed T2 cells; test: flow cytometry of T2 cells pulsed with peptide
binder,measurement,setting,value
B1,binding result,[1],binds
KLVVVGGVGV (Position 11 counts on the Ras protein) [Ras10-A11G peptide],binding result,[1],binds
B2,binding result,[2],no binding
same,binding result,[3],no binding
same,binding result,[4],no binding
B3,binding result,[5],no binding (tested: 10 ug/ml)
same,binding result,[6],no binding
same,binding result,[7],no binding (tested: 10 ug/ml)
same,Kd,[8],8.88 nM
same,binding result,[9],no binding (tested: 10 ug/ml)
same,binding result,[10],no binding (tested: 10 µg/mL)
B4,binding result,[5],no binding (tested: 10 ug/ml)
same,binding result,[11],no binding (tested: 10 ug/ml)
same,binding result,[12],no binding
same,binding result,[6],no binding
same,binding result,[7],no binding (tested: 10 ug/ml)
same,Kd,[8],9.19 nM
same,koff,[8],0.00363 s⁻¹
same,kon,[8],396000 M⁻¹ s⁻¹
same,binding result,[13],no binding (tested: 10 ug/ml)
same,binding result,[14],no binding (tested: 10 ug/ml)
same,binding result,[9],no binding (tested: 10 ug/ml)
same,binding result,[10],no binding (tested: 10 µg/mL)
LVVVGAGGV (Free synthetic peptide) [RAS9-WT peptide],binding result,[15],binds
B5,binding result,[5],no binding (tested: 10 ug/ml)
same,binding result,[11],no binding (tested: 10 ug/ml)
same,binding result,[12],no binding
same,binding result,[6],no binding
same,binding result,[7],no binding (tested: 10 ug/ml)
same,Kd,[16],65.1 nM
same,koff,[16],0.00153 s⁻¹
same,kon,[16],23400 M⁻¹ s⁻¹
same,Kd,[8],8.77 nM
same,koff,[8],0.000746 s⁻¹
same,kon,[8],85000 M⁻¹ s⁻¹
same,binding result,[17],binds
same,binding result,[18],binds

# — patent US20180134804A1 (Memorial Sloan Kettering, published 2018)
